Experimental data from patent US20230395193A1 (priority 2020, published 2023).

B1: M-Q9BYC5 (protein, UniProt Q9BYC5 1-575, looked up)
Alpha-(1,6)-fucosyltransferase: MRPWTGSWRWIMLILFAWGTLLFYIGGHLVRDNDHPDHSSRELSKILAKLERLKQQNEDLRRMAESLRIPEGPIDQGPAIGRVRVLEEQLVKAKEQIENYKKQTRNGLGKDHEILRRRIENGAKELWFFLQSELKKLKNLEGNELQRHADEFLLDLGHHERSIMTDLYYLSQTDGAGDWREKEAKDLTELVQRRITYLQNPKDCSKAKKLVCNINKGCGYGCQLHHVVYCFMIAYGTQRTLILESQNWRYATGGWETVFRPVSETCTDRSGISTGHWSGEVKDKNVQVVELPIVDSLHPRPPYLPLAVPEDLADRLVRVHGDPAVWWVSQFVKYLIRPQPWLEKEIEEATKKLGFKHPVIGVHVRRTDKVGTEAAFHPIEEYMVHVEEHFQLLARRMQVDKKRVYLATDDPSLLKEAKTKYPNYEFISDNSISWSAGLHNRYTENSLRGVILDIHFLSQADFLVCTFSSQVCRVAYEIMQTLHPDASANFHSLDDIYYFGGQNAHNQIAIYAHQPRTADEIPMEPGDIIGVAGNHWDGYSKGVNRKLGRTGLYPSYKVREKIETVKYPTYPEAEK
modifications: interaction partner of SARS-CoV-2 M
B2: M-Q9BQT8 (protein, UniProt Q9BQT8 1-299, looked up)
Mitochondrial …: MSAKPEVSLVREASRQIVAGGSAGLVEICLMHPLDVVKTRFQIQRCATDPNSYKSLVDSFRMIFQMEGLFGFYKGILPPILAETPKRAVKFFTFEQYKKLLGYVSLSPALTFAIAGLGSGLTEAIVVNPFEVVKVGLQANRNTFAEQPSTVGYARQIIKKEGWGLQGLNKGLTATLGRHGVFNMVYFGFYYNVKNMIPVNKDPILEFWRKFGIGLLSGTIASVINIPFDVAKSRIQGPQPVPGEIKYRTCFKTMATVYQEEGILALYKGLLPKIMRLGPGGAVMLLVYEYTYSWLQENW
modifications: interaction partner of viral M protein
B3: M-Q9NQC3 (protein, UniProt Q9NQC3 1-1192, looked up)
Reticulon-4: MEDLDQSPLVSSSDSPPRPQPAFKYQFVREPEDEEEEEEEEEEDEDEDLEELEVLERKPAAGLSAAPVPTAPAAGAPLMDFGNDFVPPAPRGPLPAAPPVAPERQPSWDPSPVSSTVPAPSPLSAAAVSPSKLPEDDEPPARPPPPPPASVSPQAEPVWTPPAPAPAAPPSTPAAPKRRGSSGSVDETLFALPAASEPVIRSSAENMDLKEQPGNTISAGQEDFPSVLLETAASLPSLSPLSAASFKEHEYLGNLSTVLPTEGTLQENVSEASKEVSEKAKTLLIDRDLTEFSELEYSEMGSSFSVSPKAESAVIVANPREEIIVKNKDEEEKLVSNNILHNQQELPTALTKLVKEDEVVSSEKAKDSFNEKRVAVEAPMREEYADFKPFERVWEVKDSKEDSDMLAAGGKIESNLESKVDKKCFADSLEQTNHEKDSESSNDDTSFPSTPEGIKDRSGAYITCAPFNPAATESIATNIFPLLGDPTSENKTDEKKIEEKKAQIVTEKNTSTKTSNPFLVAAQDSETDYVTTDNLTKVTEEVVANMPEGLTPDLVQEACESELNEVTGTKIAYETKMDLVQTSEVMQESLYPAAQLCPSFEESEATPSPVLPDIVMEAPLNSAVPSAGASVIQPSSSPLEASSVNYESIKHEPENPPPYEEAMSVSLKKVSGIKEEIKEPENINAALQETEAPYISIACDLIKETKLSAEPAPDFSDYSEMAKVEQPVPDHSELVEDSSPDSEPVDLFSDDSIPDVPQKQDETVMLVKESLTETSFESMIEYENKEKLSALPPEGGKPYLESFKLSLDNTKDTLLPDEVSTLSKKEKIPLQMEELSTAVYSNDDLFISKEAQIRETETFSDSSPIEIIDEFPTLISSKTDSFSKLAREYTDLEVSHKSEIANAPDGAGSLPCTELPHDLSLKNIQPKVEEKISFSDDFSKNGSATSKVLLLPPDVSALATQAEIESIVKPKVLVKEAEKKLPSDTEKEDRSPSAIFSAELSKTSVVDLLYWRDIKKTGVVFGASLFLLLSLTVFSIVSVTAYIALALLSVTISFRIYKGVIQAIQKSDEGHPFRAYLESEVAISEELVQKYSNSALGHVNCTIKELRRLFLVDDLVDSLKFAVLMWVFTYVGALFNGLTLLILALISLFSVPVIYERHQAQIDHYLGLANKNVKDAMAKIQAKIPGLKRKAE
B4: M-Q9BV40 (protein, UniProt Q9BV40 1-100, looked up)
Vesicle-associated membrane …: MEEASEGGGNDRVRNLQSEVEGVKNIMTQNVERILARGENLEHLRNKTEDLEATSEHFKTTSQKVARKFWWKNVKMIVLICVIVFIIILFIVLFATGAFS
modifications: host interactor of M
B5: M-Q9BQ95 (protein, UniProt Q9BQ95 49-431, looked up)
Evolutionarily conserved …: SSEQSLVPSPPEPRQRPTKALVPFEDLFGQAPGGERDKASFLQTVQKFAEHSVRKRGHIDFIYLALRKMREYGVERDLAVYNQLLNIFPKEVFRPRNIIQRIFVHYPRQQECGIAVLEQMENHGVMPNKETEFLLIQIFGRKSYPMLKLVRLKLWFPRFMNVNPFPVPRDLPQDPVELAMFGLRHMEPDLSARVTIYQVPLPKDSTGAADPPQPHIVGIQSPDQQAALARHNPARPVFVEGPFSLWLRNKCVYYHILRADLLPPEEREVEETPEEWNLYYPMQLDLEYVRSGWDNYEFDINEVEEGPVFAMCMAGAHDQATMAKWIQGLQETNPTLAQIPVVFRLAGSTRELQTSSAGLEEPPLPEDHQEEDDNLQRQQQGQS

System: SARS-CoV-1, MERS-CoV and SARS-CoV-2 proteins in HEK293T cells
Design: species or system human

Molecule | MIST_MERS | MIST_SARS1 | MIST_SARS2 | Saint_MERS | Saint_SARS1 | Saint_SARS2
B1 | 0.963 | 0 | 0 | 0.98 | 0 | 0
B2 | 0.4327 | 0.6946 | 0.8808 | 0 | 0.65 | 0.65
B3 | 0 | 0.4448 | 0.8738 | 0 | 1 | 1
B4 | 0.9874 | 0 | 0 | 1 | 0 | 0
B5 | 0 | 0.9893 | 0 | 0 | 0.97 | 0
